Reference: patent US20100056764A1 (Novo Nordisk, published 2010)
Where “and” joins values, the source holds several entries; their conditions need not be identical. Equal entries are not always repeated.

What was measured:
[1] = biological target: T1, rat NKG2D (rat, UniProt O70215 1-215, limits assumed); experiment: not described
T1 construct: The assay format for the cross-reactivity test is not described
T1 sequence (looked up): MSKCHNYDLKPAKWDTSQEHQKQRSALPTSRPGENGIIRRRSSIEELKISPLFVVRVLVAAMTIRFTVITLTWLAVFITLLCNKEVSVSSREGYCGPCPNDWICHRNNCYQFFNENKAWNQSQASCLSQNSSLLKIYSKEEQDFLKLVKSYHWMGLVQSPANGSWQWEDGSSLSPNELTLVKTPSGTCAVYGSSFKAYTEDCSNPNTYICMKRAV

[2] = biological target: T2, pig NKG2D (pig, UniProt Q9GLF5 1-214, limits assumed); experiment: not described
T2 construct: The assay format for the cross-reactivity test is not described
T2 sequence (looked up): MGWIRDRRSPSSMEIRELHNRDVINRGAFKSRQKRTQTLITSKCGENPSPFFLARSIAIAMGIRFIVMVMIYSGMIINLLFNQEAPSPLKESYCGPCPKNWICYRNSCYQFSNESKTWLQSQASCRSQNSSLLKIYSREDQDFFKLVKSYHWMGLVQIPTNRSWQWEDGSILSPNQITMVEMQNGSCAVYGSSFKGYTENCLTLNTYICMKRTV

[3] = biological target: T3, human NKG2D (hNKG2D) on the cell surface (human, UniProt P26718 1-216); experiment: cell-based or functional assay
T3 chain: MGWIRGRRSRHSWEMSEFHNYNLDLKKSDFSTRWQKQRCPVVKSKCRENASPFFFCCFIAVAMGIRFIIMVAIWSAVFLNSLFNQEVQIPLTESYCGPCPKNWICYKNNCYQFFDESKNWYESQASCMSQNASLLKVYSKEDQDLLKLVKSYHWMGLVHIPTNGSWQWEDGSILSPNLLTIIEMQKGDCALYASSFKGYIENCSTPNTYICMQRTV

[4] = biological target: T4, recombinant NKG2D-Fc protein (R&D Systems), immobilized on a Biacore CM5 chip (human, UniProt P26718 78-216); experiment: SPR (Biacore), mean of the two NKG2D-Fc densities
T4 construct: also called NKG2D-hFc; hFc-NKG2D; not shown: Fc portion of the purchased fusion protein
T4 sequence: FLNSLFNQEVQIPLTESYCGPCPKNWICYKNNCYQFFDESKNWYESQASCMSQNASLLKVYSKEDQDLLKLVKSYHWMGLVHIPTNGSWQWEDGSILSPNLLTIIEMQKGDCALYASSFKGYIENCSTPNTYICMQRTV
Description: Protein immobilisation. […] Recombinant NKG2D-Fc proteins were immobilized covalently to carboxyl groups in the dextran layer on a Sensor Chip CM5 (Biacore GE Healthcare; BR-1000-14). The sensor chip surface was activated with EDC/NHS (N-ethyl-N′-(3-dimethylaminopropyl)carbodiimidehydrochloride and N-hydroxysuccinimide (Biacore GE Healthcare; BR-1000-50)). Proteins were diluted to 10 μg/ml in coupling buffer (10 mM acetate, pH 5.2) and injected until the appropriate immobilization level was reached (i.e. 500 to 1000 RU). Deactivation of the remaining activated groups was performed using 100 mM ethanolamine pH 8 (Biacore GE Healthcare; BR-1000-50).
Affinity measurement. […] For kinetic experiments, serial dilutions of soluble antibodies (from 0.3 to 30 nanoM) were injected for 2 min at a constant flow rate of 40 μl/min on dextran layers containing immobilized NKG2D-Fc proteins (500 to 1000 RU), and allowed to dissociate for 3 min before regeneration by a eight second injection of 500 mM NaCl and 10 mM NaOH buffer. The resulting sensorgrams were analysed by global fitting using the Langmuir model. The dissociation constant (KD) was calculated as KD=kd/ka.

[5] = biological target: T3, human NKG2D (hNKG2D) on the cell surface; experiment: flow cytometry, dose-response on NKG2D- and DAP10-expressing BaF/3 cells
[6] = biological target: T3, human NKG2D (hNKG2D) on the cell surface; experiment: flow cytometry, NKG2D/DAP10 BaF/3 cells pre-incubated with antibody, then 1 µg MICA-mFc (competitor)
Description: (§1) Flow cytometry assays—MICA blockade. […] The cells were then analysed on a B&D FACSArray flow cytometer. The degree of reduction of MICA binding by preincubation was analysed as MFI (mean fluorescence intensity) of binding with pre-incubation in % of binding of MICA without preincubation.

[7] = biological target: T3, human NKG2D (hNKG2D) on the cell surface; experiment: flow cytometry blocking assay on NKG2D/DAP10-expressing BaF/3 cells: pre-incubation with the antibody, then 1 µg MICA-mFc; y axis % remaining MICA-Fc binding
Description: as §1

binding result [1]: no binding
binding result [2]: no binding
Kd [4]: 0.172 nM
EC50 [5]: 0.051 µg/mL and ~0.34 nM
IC50 [6]: 0.017 nM
IC50 (read off the curve) [7]: ~0.02 nM
B1: 16F16, fully human anti-hNKG2D monoclonal antibody, recombinantly expressed as IgG4 isotype (antibody, V domains shown)
VH: EVQLVESGGGLVKPGGSLRLSCAASGFTFSSYSMNWVRQAPGKGLEWVSSITSSSSYIYYADSVKGRFTISRDNAKNSLYLQMNSLRAEDTAVYYCARDRRYFDWFPLDYRGQGTLVTVSS
VL: DIQMTQSPSSLSASVGDRVTITCRASQGISSWLAWYQQKPEKAPKSLIYAASSLQSGVPSRFSGSGSGTDFTLTISSLQPEDFATYYCQQYNGYPYTFGQGTKLEIKR
notes: also called 16F16 IgG4; 16F16 (IgG4)
EC50 (µg/ml), inhibition of NK cell killing of MICA-expressing target cells (51Cr release) [3]: 0.14 µg/mL
EC50 (µg/ml), inhibition of NK cell killing of ULPB3-expressing target cells (51Cr release) [3]: 0.35 µg/mL
